One assay deals with HLA-A*02:01 (Homo sapiens, UniProt P04439, D140Y/D185E/D98H/E176V/E277Q/G131W/G231S/I119V/I121R/I166T/I218V/L300P/L318F/N151K/N90K/P208A/P217A/Q86G/Q94H/R138H/R169H/T345S). Briefly: MHC binding assay (UV-ligand exchange, ELISA, peptide exchange yield). As to conditions: binding of HLA-class I restricted peptides to HLA-A*02:01. Put shortly: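 Exchange yield was quantified as stabilized β2m-containing complex: monomers diluted 100-fold bound to streptavidin-coated wells, probed with HRP-conjugated anti-β2m, read at 450 nm after TMB. Complexes had been generated by UV cleavage of a photolabile ligand and replacement with the candidate peptide.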
On to “2 (SLLEADPFL; listed as Homo sapiens) [compound 2]”, for which the “Peptide exchange (MHC class I binding score, peptide exchange yield)” value (“Peptide exchange” below) is listed as “″+++″ (≥50% = +++)”.
The same measure, in the same setting: the result for “3 (SLASKLTTL; listed as Homo sapiens) [compound 3]” reads “″++++″ (≥75% = ++++)”; that for “8 (FTLGNVVGMYL; listed as Homo sapiens) [compound 8]”, “″++++″ (≥75% = ++++)”.
Still for that read-out and setting: in the case of “11 (KIFEMLEGV; listed as Homo sapiens) [compound 11]” it was “″+++″ (≥50% = +++)”.
As for “36 (YVLEDLEVTV; listed as Homo sapiens) [compound 36]”, the “Peptide exchange” value is listed as “″++″ (≥20% = ++)”.
On the same count and under the same terms, in the case of “38 (FLLEDDIHVS; listed as Homo sapiens) [compound 38]” it was “″+++″ (≥50% = +++)”; in that of “48 (ALAELYEDEV; listed as Homo sapiens) [compound 48]”, “″+++″ (≥50% = +++)”; in that of “56 (KLYEGIPVLL; listed as Homo sapiens) [compound 56]”, “″++++″ (≥75% = ++++)”.
Still for that read-out and setting: in the case of “79 (SLFIGEKAVLL; listed as Homo sapiens) [compound 79]” it was “″+++″ (≥50% = +++)”; in that of “113 (GLLPTPLFGV; listed as Homo sapiens) [compound 113]”, “″+++″ (≥50% = +++)”.
On the same count and under the same terms, the result for “118 (KLIDNNINV; listed as Homo sapiens) [compound 118]” reads “″+++″ (≥50% = +++)”.
In the case of “141 (YLDFSNNRL; listed as Homo sapiens) [compound 141]”, the “Peptide exchange” value is given as “″++″ (≥20% = ++)”.
On the same count and under the same terms, in the case of “143 (LLLDITPEI; listed as Homo sapiens) [compound 143]” it was “″++++″ (≥75% = ++++)”.
In the case of “150 (RLWEEGEELEL; listed as Homo sapiens) [compound 150]”, the “Peptide exchange” value is on record as “″+++″ (≥50% = +++)”.
Turning to “199 (ALQDVPLSSV; listed as Homo sapiens) [compound 199]”, the “Peptide exchange” value was “″+++″ (≥50% = +++)”.
Take “247 (VLLPNDLLEKV; listed as Homo sapiens) [compound 247]”: the “Peptide exchange” value is “″+++″ (≥50% = +++)”.
Same read-out and setting: the result for “283 (ALYIGDGYVIHLA; listed as Homo sapiens) [compound 283]” reads “″+++″ (≥50% = +++)”; that for “319 (SLEPQIQPV; listed as Homo sapiens) [compound 319]”, “″++″ (≥20% = ++)”.
Still for that read-out and setting: in the case of “384 (ILFANPNIFV; listed as Homo sapiens) [compound 384]” it was “″+++″ (≥50% = +++)”; in that of “613 (RLLPPGAVVAV; listed as Homo sapiens) [compound 613]”, “″+++″ (≥50% = +++)”.
The same measure, in the same setting: the result for “614 (LLLPDQPPYHL; listed as Homo sapiens) [compound 614]” reads “″+++″ (≥50% = +++)”.
For “615 (VLPPDTDPA; listed as Homo sapiens) [compound 615]”, the “Peptide exchange” value is reported as “″++″ (≥20% = ++)”.
On the same count and under the same terms, in the case of “616 (VLIDEVESL; listed as Homo sapiens) [compound 616]” it was “″+++″ (≥50% = +++)”; in that of “617 (ALMYESEKVGV; listed as Homo sapiens) [compound 617]”, “″+++″ (≥50% = +++)”.
Same read-out and setting: in the case of “618 (VLFDSESIGIYV; listed as Homo sapiens) [compound 618]” it was “″+++″ (≥50% = +++)”.
On the same count and under the same terms, in the case of “619 (ALQDRVPLA; listed as Homo sapiens) [compound 619]” it was “″+++″ (≥50% = +++)”.
For “620 (KLLNKIYEA; listed as Homo sapiens) [compound 620]”, the “Peptide exchange” value is reported as “″++++″ (≥75% = ++++)”.
The same measure, in the same setting: the result for “621 (VLMDRLPSLL; listed as Homo sapiens) [compound 621]” reads “″++++″ (≥75% = ++++)”.
On the same count and under the same terms, the result for “622 (RLLGEEVVRVLQA; listed as Homo sapiens) [compound 622]” reads “″+++″ (≥50% = +++)”; that for “623 (YLVEDIQHI; listed as Homo sapiens) [compound 623]”, “″+++″ (≥50% = +++)”; that for “635 (SLDSTLHAV; listed as Homo sapiens) [compound 635]”, “″+++″ (≥50% = +++)”.

The next assay has as its system CD8+ T cells. Briefly: In vitro immunogenicity: T-cell priming with artificial antigen presenting cells loaded with peptide/MHC complexes and anti-CD28 antibody, multimer readout. Type of assay: cell-based, human. The conditions noted are these: HLA-A*02 restricted peptides; positive wells among evaluable. Here is the method: In an aspect, the peptides are pre-screened for immunogenicity before being included in the warehouse. By way of example, and not limitation, the immunogenicity of the peptides included in the warehouse is determined by a method comprising in vitro T-cell priming through repeated stimulations of CD8+ T cells from healthy donors with artificial antigen presenting cells loaded with peptide/MHC complexes and anti-CD28 antibody.
In order to obtain information regarding the immunogenicity of the TUMAPs of the present invention, the inventors performed investigations using an in vitro T-cell priming assay based on repeated stimulations of CD8+ T cells with artificial antigen presenting cells (aAPCs) loaded with peptide/MHC complexes and anti-CD28 antibody.
In order to perform in vitro stimulations by artificial antigen presenting cells loaded with peptide-MHC complex (pMHC) and anti-CD28 antibody, the inventors first isolated CD8+ T cells from fresh HLA-A*02 leukapheresis products via positive selection using CD8 microbeads (Miltenyi Biotec, Bergisch-Gladbach, Germany) of healthy donors obtained from the University clinics Mannheim, Germany, after informed consent.
PBMCs and isolated CD8+ lymphocytes were incubated in T-cell medium (TCM) until use consisting of RPMI-Glutamax (Invitrogen, Karlsruhe, Germany) supplemented with 10% heat inactivated human AB serum (PAN-Biotech, Aidenbach, Germany), 100 U/ml Penicillin/100 μg/ml Streptomycin (Cambrex, Cologne, Germany), 1 mM sodium pyruvate (CC Pro, Oberdorla, Germany), 20 μg/ml Gentamycin (Cambrex). 2.5 ng/ml IL-7 (PromoCell, Heidelberg, Germany) and 10 U/ml IL-2 (Novartis Pharma, Nürnberg, Germany) were also added to the TCM at this step.
Generation of pMHC/anti-CD28 coated beads, T-cell stimulations and readout was performed in a highly defined in vitro system using four different pMHC molecules per stimulation condition and 8 different pMHC molecules per readout condition.
The purified co-stimulatory mouse IgG2a anti human CD28 Ab 9.3 (Jung et al., 1987) was chemically biotinylated using Sulfo-N-hydroxysuccinimidobiotin as recommended by the manufacturer (Perbio, Bonn, Germany). Beads used were 5.6 μm diameter streptavidin coated polystyrene particles (Bangs Laboratories, Illinois, USA).
pMHC used for positive and negative control stimulations were A*0201/MLA-001 (peptide […] (SEQ ID NO. 664) from modified Melan-A/MART-1) and A*0201/DDX5-001 ([…] from DDX5, SEQ ID NO. 665), respectively.
800.000 beads/200 μl were coated in 96-well plates in the presence of 4×12.5 ng different biotin-pMHC, washed and 600 ng biotin anti-CD28 were added subsequently in a volume of 200 μl. Stimulations were initiated in 96-well plates by co-incubating 1×10^6 CD8+ T cells with 2×10^5 washed coated beads in 200 μl TCM supplemented with 5 ng/ml IL-12 (PromoCell) for 3 days at 37° C. Half of the medium was then exchanged by fresh TCM supplemented with 80 U/ml IL-2 and incubating was continued for 4 days at 37° C. This stimulation cycle was performed for a total of three times. For the pMHC multimer readout using 8 different pMHC molecules per condition, a two-dimensional combinatorial coding approach was used as previously described (Andersen et al., 2012) with minor modifications encompassing coupling to 5 different fluorochromes. Finally, multimeric analyses were performed by staining the cells with Live/dead near IR dye (Invitrogen, Karlsruhe, Germany), CD8-FITC antibody clone SK1 (BD, Heidelberg, Germany) and fluorescent pMHC multimers. For analysis, a BD LSRII SORP cytometer equipped with appropriate lasers and filters was used. Peptide specific cells were calculated as percentage of total CD8+ cells. Evaluation of multimeric analysis was done using the FlowJo software (Tree Star, Oreg., USA). In vitro priming of specific multimer+CD8+ lymphocytes was detected by comparing to negative control stimulations. […]
Regarding “2 (SLLEADPFL; listed as Homo sapiens) [compound 2]”, the “Wells positive [%]” value is “″+″ (<20% = +)”.
Still for that read-out and setting: the result for “3 (SLASKLTTL; listed as Homo sapiens) [compound 3]” reads “″+″ (<20% = +)”.
“8 (FTLGNVVGMYL; listed as Homo sapiens) [compound 8]”: the “Wells positive [%]” value is “″+″ (<20% = +)”.
With “11 (KIFEMLEGV; listed as Homo sapiens) [compound 11]”, the “Wells positive [%]” value is recorded as “″+″ (<20% = +)”.
For the substance “36 (YVLEDLEVTV; listed as Homo sapiens) [compound 36]”, the “Wells positive [%]” value was “″+″ (<20% = +)”.
On the same count and under the same terms, the result for “38 (FLLEDDIHVS; listed as Homo sapiens) [compound 38]” reads “″+″ (<20% = +)”; that for “48 (ALAELYEDEV; listed as Homo sapiens) [compound 48]”, “″+″ (<20% = +)”; that for “56 (KLYEGIPVLL; listed as Homo sapiens) [compound 56]”, “″+″ (<20% = +)”.
Still for that read-out and setting: in the case of “79 (SLFIGEKAVLL; listed as Homo sapiens) [compound 79]” it was “″+″ (<20% = +)”; in that of “113 (GLLPTPLFGV; listed as Homo sapiens) [compound 113]”, “″+″ (<20% = +)”.
Consider “118 (KLIDNNINV; listed as Homo sapiens) [compound 118]”, for which the “Wells positive [%]” value is reported as “″+″ (<20% = +)”.
The same measure, in the same setting: in the case of “141 (YLDFSNNRL; listed as Homo sapiens) [compound 141]” it was “″+″ (<20% = +)”.
On the same count and under the same terms, in the case of “143 (LLLDITPEI; listed as Homo sapiens) [compound 143]” it was “″+″ (<20% = +)”; in that of “150 (RLWEEGEELEL; listed as Homo sapiens) [compound 150]”, “″+″ (<20% = +)”.
Same read-out and setting: in the case of “199 (ALQDVPLSSV; listed as Homo sapiens) [compound 199]” it was “″+″ (<20% = +)”; in that of “247 (VLLPNDLLEKV; listed as Homo sapiens) [compound 247]”, “″+″ (<20% = +)”; in that of “319 (SLEPQIQPV; listed as Homo sapiens) [compound 319]”, “″+″ (<20% = +)”.
As to “384 (ILFANPNIFV; listed as Homo sapiens) [compound 384]”, the “Wells positive [%]” value was “″+″ (<20% = +)”.

Staying with this assay, now noted: percentage of positive donors.
Turning to “283 (ALYIGDGYVIHLA; listed as Homo sapiens) [compound 283]”, the “in vitro immunogenicity, donors” value is “+++ (50%-69% = +++)”.
The same measure, in the same setting: in the case of “648 (LLWGNAIFL; listed as Homo sapiens) [compound 648]” it was “+++ (50%-69% = +++)”.
On the same count and under the same terms, in the case of “652 (TLWYRAPEV; listed as Homo sapiens) [compound 652]” it was “++++ (> = 70% = ++++)”; in that of “659 (ILFPDIIARA; listed as Homo sapiens) [compound 659]”, “+++ (50%-69% = +++)”.
Turning to “662 (KIQEILTQV; listed as Homo sapiens) [compound 662]”, the “in vitro immunogenicity, donors” value was “+++ (50%-69% = +++)”.
Same read-out and setting: the result for “663 (KIQEMQHFL; listed as Homo sapiens) [compound 663]” reads “+++ (50%-69% = +++)”.

Still in this assay, the particulars now being: percentage of positive wells.
Consider “283 (ALYIGDGYVIHLA; listed as Homo sapiens) [compound 283]”, for which the “in vitro immunogenicity, wells” value is “+ (<20% = +)”.
Still for that read-out and setting: in the case of “648 (LLWGNAIFL; listed as Homo sapiens) [compound 648]” it was “++ (20%-49% = ++)”.
As to “652 (TLWYRAPEV; listed as Homo sapiens) [compound 652]”, the “in vitro immunogenicity, wells” value is reported as “+++ (50%-69% = +++)”.
The same measure, in the same setting: in the case of “659 (ILFPDIIARA; listed as Homo sapiens) [compound 659]” it was “+ (<20% = +)”.
Same read-out and setting: in the case of “662 (KIQEILTQV; listed as Homo sapiens) [compound 662]” it was “+ (<20% = +)”.
The same measure, in the same setting: the result for “663 (KIQEMQHFL; listed as Homo sapiens) [compound 663]” reads “+ (<20% = +)”.

These data come from patent publication US10227388B2, “Peptides and combination of peptides for use in immunotherapy against non-small cell lung cancer and other cancers” (immatics biotechnologies GmbH, priority 2015, dated 2019).
